Results taken from the nanobody polyreactivity screen of Harvey et al. (2022).

Test: yeast display, Sf9 membrane polyspecificity reagent, FACS + sequencing; frameworks hold sequencing errors
Outline: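 Sorting gates, low and high (top ~1%), were placed on anti-HA fluorescence to track expression and on streptavidin fluorescence to track reagent binding. A clone's polyreactivity label is taken from the gate it came out of. The reagent was 10% biotinylated, detergent-solubilized Sf9 membrane, applied for 1 hour at 4 °C to galactose-induced yeast display cells.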

Sequence | polyreactivity (PSR sort gate)
QVQLVESGGGLVQAGGSLRLSCAPSRYIFYPYAMGWYRQAPGKEREFVATISYRGGSTYYADSVKGRFTISRDNAKNTVYLQMNSLKPEDTAVYYCAAREPWYYGYGDYWGHGTQVTVSS | high polyreactivity
QVQLVESGGGLVQAGGSLRLSCAPYGFTFSKYAMGWYRKAPGKERELVAAITYSGGTTYYADSVKGRFTISRDNAKNTVYLQMNSLKPEDTAVYYCAADTKRRSIRYDYWGQGTQVTVSS | high polyreactivity
QVQLVESGGGLVQAGGSLRLSCAQSGFTKSTYTMGWYRQAPGKESELVAAIRRSGDSTYYGDSVKGRFTISRDHAKNTVYLQMKRLKPEDTAVYYSNAVRYRFERYDYWGQGTQVTVSS | high polyreactivity
QVQLVESGGGLVQAGGSLRLSCASSGFIFRGYAMGWYRQAPGKERELVAVISRSGTSTYYADSVKGRFTISRDNAKITVYLQMNSLKPEDTAVYYCAKEVWPRYIRQAYLSGYESWGQGTQVTVSS | high polyreactivity
QVQLVESGGGLVQAGGSLRLSCASSGFTFYKYVMGGYRQDPGKEREMVAASSRSGGSTYYADSVKGRFTISRDNAKNTVYLQMNSLIPEDTAVYSCAKDSCGAPEGPYDYWGQGTQVTVSS | high polyreactivity
QVQLVESGGGLVQAGGSLRLSCASSGFTFYSYDMGWYRQAPGKERELVAAITWYGGSTYYADSVKGRFTISRDNAKNTVYLQMKSLKQEDTAVYYCAAELFPLQHFWVAYATRRYDYWGQCTQVTVSS | low polyreactivity
QVQLVESGGGLVQAGGSLRLSCASSGFTLGYYTMGWYRQAPGKESELVAAIRSNGGSTYYADSVKGRFTISRDNAKNTVYLQMNSLKPEDTAVYYCAARRWRYVGTRYDYWGQGTQVTVSS | high polyreactivity
QVQLVESGGGLVQAGGSLRLSCASSGGIFYSYDMGWYRQAPGKERELVAAITWIGGSTYYADSVKGRFTISRDNAKNTVYFQMNSLKPEDTAVYYCAAEILWGGYDYWGQGTQVSVSS | low polyreactivity
QVQLVESGGGLVQAGGSLRLSCASSGGTFISYAMGWYRQAPGKERELVAAISRGGSSTYYADSVKGRFTISRDNAKNTVYLQMNSLKPEDTAVYYCNKAYHRRDSEFGYWGQGTQVTVSS | high polyreactivity
QVQLVESGGGLVQAGGSLRLSCASSGIIFYAYAMGWYRQAPGKERELVAAINFNTGRTYYADSVKGRFTISRDNAKNTVYLQMNSLKPEDTAVYYCAKSSYRNSGERDYWGQGTQVTVSS | high polyreactivity
QVQLVESGGGLVQAGGSLRLSCASSGITFWSYAMVWYRQAPGKERELVAAISRGGDSTYYADSVKGRFTISRDNAKNTVYLQMNSLKPEDTAVYDCAALRPREEYYWGHGTQVTVSS | high polyreactivity
QVQLVESGGGLVQAGGSLRLSCASSGITLYGYAMGWYRQAPGKEREFVAAISRSGDRTYYADSVKGRFTISRDNAMNTVYLQMNSLKPEDTAVYYCNAWRYDYWGQGTQVTVSS | high polyreactivity
QVQLVESGGGLVQAGGSLRLSCASSGLILAPNDMGWYRQAPGKERELVAAITFRGVRTYYADSVKGRFTISRDNAKNNVYLQLNSLKPEDTAVYYCAAAVSKHYPYNYWGQGTQVSVSS | high polyreactivity
QVQLVESGGGLVQAGGSLRLSCASSGPIFAYNAIPGYRQAPGKERELVADISSGGNTYYADSVKGRFTISRDNAKNTVYLQMNSLKPEDTAVYYCAADIAWYTHDHRIFDYWGQGTQVTVSS | low polyreactivity
QVQLVESGGGLVQAGGSLRLSCASSGRIFDQYAMGWYRQAPGKERELVAAISSDDGSTYYADSVKGRFTISRDNAKNTVYLQMNSLKPEDTAVYYCAADAWRYVDYDYWGQGTQVTVSS | low polyreactivity
QVQLVESGGGLVQAGGSLRLSCASSGRIFGSYAMGWYRQAPGKERELVAAISWRGTSTYYADSVKGRFTISRDNAKNTVYLQMNSLKPEDTAVYYCAARGLWPYDYWGQGTQVTVSS | low polyreactivity
QVQLVESGGGLVQAGGSLRLSCASSGRIFLTNAMGWYRQAPGKERELVAAITSGGSTYYADSVKGRFTISRDNAKNTVFLQMNSLKPEDTAVYYCIADTDRYWPYEYDYWGQGTQVTVSS | low polyreactivity
QVQLVESGGGLVQAGGSLRLSCASSGRIFNRYAMGWYRQAPGKERELVAAISSRGGSTYYADSVKGRFTISRDNAKNTVYLPMNSLKPEDTAVYYCAASAQKASYDWRYDYWGQGTQVTVSS | high polyreactivity
QVQLVESGGGLVQAGGSLRLSCASSGRIFRNNVMGWYRQAHGKVRELVAAISATGTITRYADSVKGSFTISRDYSKNTVYLQMNSLKPEDTAVYYCAKDRGWWLGFIMDYWGQGSQVTVSS | low polyreactivity
QVQLVESGGGLVQAGGSLRLSCASSGRIFRYYAMGWYRQAPGKERELVAAINWSGGSTYYADSVKGRFTISRDNAKNTVYLQMNSLNPEDTAVYYCYRRAYIRYDSSSLDYWGQGTQVTVSS | low polyreactivity
QVQLVESGGGLVQAGGSLRLSCASSGRIFSGYAMGSYRQAPAKERELVATITSGGGTYYADSVKGRFTISRDNAKNTVYFQMNSLKPEDTAVYYCNAEKKGSFRKYNYWGQGTQVTVSS | low polyreactivity
QVQLVESGGGLVQAGGSLRLSCASSGRIFSNYAMGWYRQAPGKERELVAAISWRTSNTYYADSVKGRFTISRDNAKYTVYLQMNSQKPEDTAVYYCAKYRRFRPYGSNGIYDYWGQGTQVSVSS | high polyreactivity

Sequence | polyreactivity (PSR sort gate)
QVQLVESGGGLVQAGGSLRLSCASSGRILYGSAMGWYRQAPGKERALVAAISWRSGSTYYADSVKGRFTISRDNAKNTVYLQMNSLKPEDTEVYYCAAGYGGYPGGYYWGQGTQVTVSS | high polyreactivity
QVQLVESGGGLVQAGGSLRLSCASSGRNFYSYVMGWYRQAPGKERELVAAITRSGGTTYYADSVKGRITISRDNAKNTVYLEMYSLKPEDTAVYYCAAYVGGIRYYSWGQGTQVIVSS | high polyreactivity
QVQLVESGGGLVQAGGSLRLSCASSGRTFEDYTMGWYRQAPGKVWEWVAAITGGGSTNYADSVKGRFTISRDNAKNTVYLQMYSQKPEDTAVYYCAAHYRYNWFRRYSYWGQGTQETVSS | high polyreactivity
QVQLVESGGGLVQAGGSLRLSCASSGRTFFQYAMGWYRQAPGKERELVAAIRWSDSTYYADSVKGRFTISRDNAKNTVYLQMNSLKPEDTAVYYCAAPRVSQYSTKKYDYWGQGTQVTVSS | low polyreactivity
QVQLVESGGGLVQAGGSLRLSCASSGRTFLRYTMGWYRQAPGKERELVAAISYRGGTTYYADSVKGRFTISRDNGKNTVYLEMNSMKADETGVYYCAARNVGRTGSDFWGQGTQVTVSS | low polyreactivity
QVQLVESGGGLVQAGGSLRLSCASSGRTFRRYAMGWYRQAPGKERELVAAITWSGGSTYYADSVKGRFTFSRDYGKNTVYLQMNSLKPADTAEYYCAVSPLYSTSYYGLRKGYYWGQGTQVTVSS | high polyreactivity
QVQLVESGGGLVQAGGSLRLSCASSGRTFRYYTMGWYRQAPGKEREFVAAISSTGGTYYADSVKGRFTISRDNAKNTVYFQMNSLIPVDTAVYYCAATFIKVVVNVQLYDYDYWGQGTQVTVSS | low polyreactivity
QVQLVESGGGLVQAGGSLRLSCASSGRTFSGYAMGWYRQAPGKERELVASITWSGGSTYYADSVKGRFTISRDNAKNTVYLQMNSLKPDDTAVYYCARDSPRGRVGFNYWGQGTQVTVSS | low polyreactivity
QVQLVESGGGLVQAGGSLRLSCASSGRTFSPYAMGWYRQAPGKERELVAAISSGGGNTYYADSVKGRITISRDNAKNTVYLQMNSLKPVDTAVYYCNAAQRRGGLGYWGLGTQVTVSS | high polyreactivity
QVQLVESGGGLVQAGGSLRLSCASSGRTFYDNTMGWYRQAPGKERELVAGISYSGGSTYYADSVKGRFTISRDNAKNTVYLQMNSLKPEDTAVYYCNAELYFPYFDGKTRHGGYWGQGTQVTVSS | low polyreactivity
QVQLVESGGGLVQAGGSLRLSCASSGRTFYIYAIGWYRQAAGKERELVASISRGGSTTYADSVKGRFTISRDNAKNTVYLQMNSLKPEDTAVYYCNARAYYDMNQWGQGTQVTVSS | low polyreactivity
QVQLVESGGGLVQAGGSLRLSCASSGRTFYIYDMGWYRQAPGKERELVAAITSVGSTNYADSVKGRFTISRDNAMNTVYLQMNSLKPEDTAVYYCAAESTVGTSGDYDYWGQGTQVTVSS | low polyreactivity
QVQLVESGGGLVQAGGSLRLSCASSGRTISSYAMGWYRQPPGKERELVAGISWRGGRTYYADSVKGRFTISRDNAKITVYLQMNSLKPEDTAVSYCAADRVRGGYRTYYWVVHLDYWGQGTQVTVSS | high polyreactivity
QVQLVESGGGLVQAGGSLRLSCASSGRTSVINAMGWYRQAPGKERELVATITWSGASTYYADSVKGRFTISRDNAKNTVYLQMNSLKPEDTAVYYCNAESLYTPYNDTSLTVEYGYWGQGTQVTVSS | low polyreactivity
QVQLVESGGGLVQAGGSLRLSCASSGRTVGYNAMGWSRQPPGKEREFVAAITWSGGRTYYADSVKGRFTISRDNAKNTVYLLMNSLKPEDTAVYYCAIDGYWDFDYWGQGTQVSVSS | low polyreactivity
QVQLVESGGGLVQAGGSLRLSCASSGSIFAWNAMGWYRQTPGKERELVAAINSGGGTYYADSVKGRFTISRDNAKNTVYSQMNSLIPEDTAVYYCAAGRLSHRYRYNYWGQGTQVTVSS | high polyreactivity
QVQLVESGGGLVQAGGSLRLSCASSGSIFFANAIGWYRQAPGKERELVATISWRGGSTYYAYSVKGRFTISRDIAKNSVYLQKNSLKPEDTAVYYCAAGYYPYWGQGTQLTVSS | low polyreactivity
QVQLVESGGGLVQAGGSLRLSCASSGSIFFEYAMVWYRQAPGKERELDASINRGGGSTYYADSVKGRFTISRDNAKNTVYLQMNSLKPEDTAVYYCAAQWKYRQSYLDYYWGQGTQVTVSS | low polyreactivity
QVQLVESGGGLVQAGGSLRLSCASSGSIFFLYAMGWYRQAPGKERELVAAITGSGSRTYYADSVKGRFTISRDNEKNTVYLHMNSLKPEYTAVYYCAARYYGAYGKQPRARYGYWGKGTQVTVSS | high polyreactivity
QVQLVESGGGLVQAGGSLRLSCASSGSIFGAYAMGWYRQAPGKERELVAAITSVGSTYYADSVKGRFTISRDNAKNTVYVQMNSLIPEDTAVYYCAKRQWRPTYRYGYWGQGTQVTVSS | low polyreactivity
QVQLVESGGGLVQAGGSLRLSCASSGSIFGGYAMGWYRQAPGKERELVAAITSSGGLTYYADSVKGRFTISRDNAKNTVYLQMNCLKPEDTAVYYCAAVTVAGYDYWGQGTQVTVSS | high polyreactivity
